# FireProtDB (doi:10.1016/0022-2836(92)90562-x)
# Conditions: Bacillus amyloliquefaciens; pH 6.3; 25 °C; Urea; Fluorescence; MES-NaOH 450 mM; reversible: yes; whole UniProt chain shown
protein,measurement,value
"Ribonuclease wild type, P00648 (protein) MMKMEGIALKKRLSWISVCLLVLVSAAGMLFSTAAKTETSSHKAHTEAQVINTFDGVADYLQTYHKLPDNYITKSEAQALGWVASKGNLADVAPGKSIGGDIFSNREGKLPGKSGRTWREADINYTSGFRNSDRILYSSDWLIYKTTDHYQTFTKIR",denaturant m value,1.93 kcal/mol/M
same,denaturant midpoint (higher = more stable),4.57 M
same,unfolding free energy,8.82 kcal/mol
